According to article PMC10634658:
Blank lines part the entries; values can stand above or below the substance they belong to.

Columns and labels:
[1] = target: BLUF-α3 (PAC-BLUF domain with the α3-helix of OaPAC, residues 1-126) (Oscillatoria acuminata); assay: SEC; Superdex 200 Increase 10/300, PBS, room temperature, 50 μM, 100 μl injected; dark state and light state (column irradiated with a Xe lamp); mass calibrated with a gel filtration standard
[2] = target: BLUF-α3 (PAC-BLUF domain with the α3-helix of OaPAC, residues 1-126) (Oscillatoria acuminata); assay: transient grating (diffusion coefficient); 80 μM protein, 23 °C, excitation at 462 nm; diffusion coefficients of reactant (dark) and photoproduct (light) compared with those expected for monomer and dimer
[3] = target: PAC-BLUF (BLUF domain of OaPAC, residues 1-102) (Oscillatoria acuminata); assay: SEC; Superdex 200 Increase 10/300, PBS, room temperature, 50 μM, 100 μl injected; dark state and light state (column irradiated with a Xe lamp); mass calibrated with a gel filtration standard
[4] = target: PAC-BLUF (BLUF domain of OaPAC, residues 1-102) (Oscillatoria acuminata); assay: transient grating (diffusion coefficient); 80 μM protein, 23 °C, excitation at 462 nm; diffusion coefficients of reactant (dark) and photoproduct (light) compared with those expected for monomer and dimer
[5] = target: full-length OaPAC (photoactivated adenylate cyclase from Oscillatoria acuminata) (Oscillatoria acuminata); assay: SEC; Superdex 200 Increase 10/300, PBS, room temperature, 50 μM, 100 μl injected; dark state and light state (column irradiated with a Xe lamp); mass calibrated with a gel filtration standard
[6] = target: full-length OaPAC (photoactivated adenylate cyclase from Oscillatoria acuminata) (Oscillatoria acuminata); assay: transient grating (diffusion coefficient); 80 μM protein, 23 °C, excitation at 462 nm; diffusion coefficients of reactant (dark) and photoproduct (light) compared with those expected for monomer and dimer
[7] = target: full-length OaPAC (photoactivated adenylate cyclase from Oscillatoria acuminata) (Oscillatoria acuminata); assay: SAXS; Photon Factory BL-15A2, flowing sample, dark state and light state (450 nm diode laser); molecular mass from the Guinier plot (80 kDa)

stoichiometry N [1]: 2 | stoichiometry N [2]: 2
Substance: BLUF-α3 (PAC-BLUF domain with the α3-helix of OaPAC, residues 1-126) (domain or fragment)

stoichiometry N [3]: 2 | stoichiometry N [4]: 2
Substance: PAC-BLUF (BLUF domain of OaPAC, residues 1-102) (domain or fragment)

stoichiometry N [5]: 2 | stoichiometry N [6]: 2 | stoichiometry N [7]: 2
Substance: full-length OaPAC (photoactivated adenylate cyclase from Oscillatoria acuminata) (enzyme)
